The target in the test is HPV 16 E786-93 epitope […] (X aminobutyric acid) presented by HLA-A2.1 (human papilloma virus (HPV) 16; human).

Substance “freshly isolated HLA-A2 positive CD8+ (CTLs) and CD4+ (HTLs) T cells (cells without a defined receptor)” yielded an IFN γ Elispot, frequency of spots (250,000 cells per well) of 0.02%.

Source of the values: US20080044407A1.
